In US20250122301A1 (IBIO, published 2025):
Substitutions are numbered along the chain they refer to.

T1: CD25 on CD25+ cells (SUDHL-1, HEK IL-2 reporter cells, primary human regulatory T cells) (human, UniProt P01589 22-272)
T1 construct: whole, on cells; also called IL-2Ralpha
T1 sequence (looked up): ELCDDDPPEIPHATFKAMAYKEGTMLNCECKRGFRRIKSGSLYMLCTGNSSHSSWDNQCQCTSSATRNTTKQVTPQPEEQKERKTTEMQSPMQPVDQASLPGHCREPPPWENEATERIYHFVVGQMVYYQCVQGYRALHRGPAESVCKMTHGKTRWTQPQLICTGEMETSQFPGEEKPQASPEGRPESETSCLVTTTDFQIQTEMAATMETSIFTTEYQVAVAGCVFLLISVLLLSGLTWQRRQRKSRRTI

B1: AH05259 (human IgG1 reformatted) (antibody, V domains shown)
VH: QVQLQQSGAELVRPGVSVKISCKGSGYTFTDYAMHWVKQSHAKSLEWIGVISTYSGDVSYNQKFKGKATMTVDKSSSTAYMELARLTSEDSAIYYCARGVTFDSWGQGTSLTVSS
VL: DIQMTQTPASLSASVGETVTITCRASENIYSFLEWFQQKQGKSPQLLVYNAKTLAEGVPSRFSVSGSGTQFSLKINSLQPEDFGSYYCQHHYGIPYTFGGGTKLEIK
B2: AH05268 (human IgG1 reformatted) (antibody, V domains shown)
VH: B1 VH with V18L, K38R, V58A, S59L, M81L, E89D, S104Y, S110T
VL: DVQMTQSPSSMYASLGERVTFTCKASQDINRYLSWFQQKPGKSPKTLIYRANRLVDGVPSRFSGSGSGQNYSLTISSLEYEDMGIYYCLQYDEFPYTFGGGTKLEIK
B3: AH05257 (human IgG1 reformatted) (antibody, V domains shown)
VH: B1 VH with V18L, K38R, V58A, S59I, M81L, S104Y, S110T, S115A
VL: DIVMTQSTSSLSASLGDRVTISCRASQDISNYLSWYQQKPDGTIKLLIYYTSRLHSGVSSRFSGSGSGTDYSLTISNLEQEDFATYFCQQGHTLPPTFGGGTKLEIK
B4: D36 (human IgG1 reformatted) (antibody, V domains shown)
VH: B1 VH with S7P, V18L, K38R, V58A, S59L, M81L, S104Y, S110T
VL: B1 VL with I2V, Q3V, T7S, I29S, F32Y, F36Y, V64G, S85T, I94T, I106M
B5: D5 (human IgG1 reformatted) (antibody, V domains shown)
VH: QVQLQQSGAELVRPGTSVKISCKASGYTFTNYWLGWVKQRPGHGLEWIGDIYPGGGYTNYNEKFKGKATLTADTSSSTAYMQLSSLTSEDSAVYFCARVTPASWGQGTSLTVSS
VL: DIVMTQSQKFMSTSVGDRVSVTCKASQNVGTNVAWYQQKPGQSPKALIYSASYRYSGVPDRFTGSGSGTDFTLTISNVQSEDLAEYFCQQYNSYPYTFGGGTKLEMK
B6: AH04524 (human IgG1 reformatted) (antibody, V domains shown)
VH: QIQLQQSGAELVRPGTSVKMSCKAAGYTFTNYWIGWVKQRPGHGLEWIGDIHPGGDYSNYNEKFKGKATLTADTSSSTAYMSLSSLTSEDSAIYYCTSRNFAYWGQGTLVTVSA
VL: B5 VL with M106I
notes: also called AH4524
B7: AH04509 (human IgG1 reformatted) (antibody, V domains shown)
VH: B6 VH with I51F, H52Y, S58I, S82Q, L109P, A114S
VL: B5 VL with I2T, V3T, M4V, K9R, A46P, S76N, S93N, Y94S, Y96L, M106I
notes: also called AH4509
B8: AH05247 (human IgG1 reformatted) (antibody, V domains shown)
VH: QVQLQQSGADLMKPGASVKMSCRASGYTFSNYWIEWIKQRPGHGLEWIGEILPGSGFTNYNENFKGKATFTADTSSNTTYMLLSSLSSEDSAVYYCARGGTSVVHFDSWGQGTTLTVSS
VL: B5 VL with Y96L, M106I
B9: AH04511 (human IgG1 reformatted) (antibody, V domains shown)
VH: B6 VH with T30S, D56G, S58I, K65T, S82Q, T97V, Y103N
VL: B5 VL with T5S, M106I
notes: also called AH4511
B10: AH04503 (human IgG1 reformatted) (antibody, V domains shown)
VH: B6 VH with I2V, S7P, T30S, D56G, S58I, K65T, S82Q, T97V, Y103N
VL: B5 VL with V3Q, Y96W, M106I
notes: also called AH4503
B11: AH04527 (human IgG1 reformatted) (antibody, V domains shown)
VH: B6 VH with I2V, D56G, S58I, N59D, K65T, S82Q, T97V, Y103K
VL: B5 VL with I2V, M106I
B12: AH04505 (human IgG1 reformatted) (antibody, V domains shown)
VH: B6 VH with Q1D, I2V, D56G, S58T, S82Q, D90G
VL: B5 VL with I2T, V3T, M4V
notes: also called AH4505
B13: BP003-T2P1D10 (human IgG1 reformatted) (antibody, V domains shown)
VH: B5 VH with V2I, S7P
VL: B5 VL with M4I, F62L, S93R, M106I
B14: AH04507 (human IgG1 reformatted) (antibody, V domains shown)
VH: B6 VH with I2V, D56G, S58I, N59D, K65T, S82Q, T97V, Y103K
VL: B5 VL with I2T, V3T, M4V, M106I
B15: AH04522 (human IgG1 reformatted) (antibody, V domains shown)
VH: B6 VH with D56G, S58T, S82Q
VL: B5 VL with I2T, V3T, M4V, S26G, M106I
B16: AH04523 (human IgG1 reformatted) (antibody, V domains shown)
VH: B6 VH with D56S, S58T, K63N, L70F, A79T, S82Q, Y95F, Y103K, L109P, A114S
VL: B5 VL with M4L, M106I
notes: also called AH4523
B17: AH04501 (human IgG1 reformatted) (antibody, V domains shown)
VH: B6 VH with I2V, S7P, S82N
VL: B5 VL with I2V, S7T, M11T, M106I
notes: also called AH4501
B18: BP003-T2P1C4 (human IgG1 reformatted) (antibody, V domains shown)
VH: B5 VH with S109T, L110V
VL: B5 VL with V3Q, T13A
B19: AH04526 (human IgG1 reformatted) (antibody, V domains shown)
VH: B6 VH with I2V, S82N, L109P, A114S
VL: B5 VL with I2T, V3T, M4V
B20: AH04502 (human IgG1 reformatted) (antibody, V domains shown)
VH: B6 VH with D56G, S58T, Y80D, S82Q
VL: B5 VL with T31I, M106I
notes: also called AH4502
B21: AH04525 (human IgG1 reformatted) (antibody, V domains shown)
VH: B6 VH with I2V, V37I, S58T, S75F, S82Q, S98G, A114S
VL: B5 VL with I2N, M4L
notes: also called AH4525
B22: AH05274 (human IgG1 reformatted) (antibody, V domains shown)
VH: B5 VH with V37I
VL: B5 VL with V3Q, M106I
B23: D17 (human IgG1 reformatted) (antibody, V domains shown)
VH: B5 VH with V2I, S109T, S114A
VL: B5 VL with V3L, M4L, Y96L, M106I
B24: AH04518 (human IgG1 reformatted) (antibody, V domains shown)
VH: B6 VH with I2V, G44D, S82N
VL: B5 VL with V3L, M4L, M106I
notes: also called AH4518
B25: AH05256 (human IgG1 reformatted) (antibody, V domains shown)
VH: QVQLQQPGAELAKPGASVKMSCKASGYTFTRYWIHWVKQRPGQDLEWIGYINPRTDYTEYNQKFKDKATLTADKSSSTAYMQLSSLTSDDSAVYYCARHGYFDYWGQGTTLTVSS
VL: DIQMTQTTSSLSASLGDRVTISCRASQDISNYLNWYQQKPDGTVKLLIYHTSRLQSGVPSRFTGSGSGTDYSLTISNLEQEDIATYFCQQSNSLPPTFGGGTKLEIK
B26: AH04750 (human IgG1 reformatted) (antibody, V domains shown)
VH: QVQLQQPGAEMAKPGASVKMSCKASGYTSTAYWIHWVKQRPGQGLEWIGYITPSTGYTEYNQKFEDKATLTADKSSNTAYMQLNSLTSEDSAVYYCARGGYFDYWGQGTTVTVSS
VL: B25 VL with H50Y, Q55H, T63S, S91G, S93T, I106M

Target: T1, CD25 on CD25+ cells (SUDHL-1, HEK IL-2 …)
Assay: flow cytometry, dose response on CD25+ SUDHL-1 cells;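 note: antibody binding to cells read as median fluorescence intensity of an AF647 anti-human Fc secondary, DAPI+ dead cells excluded, 20 min on ice, 5-fold dilutions from 10 ug/mL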
Description: For each cell line, 100,000 cells were plated in a 96 well round bottom plate in cell buffer (PBS+2% HI FBS) and centrifuged. Antibody concentrations from 1-10 ug/mL were used to test the binding of each antibody. Cell were resuspended in 100 uL of antibodies/well and incubated for 20 minutes on ice. After incubation, cells were centrifuged at 300×g for 5 minutes at room temperature, and resuspended and washed with ice cold cell buffer. Cells were then stained with an anti-human Fc secondary antibody conjugated to AF647 (Biolegend) and incubated on ice for 20 min in the dark. Cells were centrifuged, washed and resuspended in cold cell buffer with DAPI and analyzed using flow cytometry (Cytoflex, Becton Dickinson). DAPI+ cell were excluded from analysis. The mean fluorescence intensity was calculated using the median (FlowJo, TreeStar).

Row | Binder | EC50 [µg/mL]
1 | B1 | 0.121
2 | B2 | 0.108
3 | B3 | 0.113
4 | B4 | 1.49
5 | B5 | 0.603
6 | B6 | 0.116
7 | B7 | 0.121
8 | B8 | 0.0977
9 | B9 | 0.108
10 | B10 | 0.145
11 | B11 | 0.0959
12 | B12 | 0.106
13 | B13 | 0.165
14 | B14 | 0.089
15 | B15 | 0.11
16 | B16 | 0.108
17 | B17 | 0.159
18 | B18 | 0.294
19 | B19 | 0.164
20 | B20 | 0.109
21 | B21 | 0.109
22 | B22 | 0.228
23 | B23 | 0.0957
24 | B24 | 0.114
25 | B25 | 0.0715
26 | B26 | 0.107
